From patent US20170145086A1 (VISTERRA, published 2017)
Substitutions are numbered along the chain they refer to. One block for each binder: values may come before it.

Experiments:
[1] = target: T1, HA-GCN4 hAPRIL (amino acid residues 105-250) (human, UniProt O75888 105-250); assay: blocking ELISA, 4-parameter fit; blocked: human APRIL binding to human BCMA-Fc
T1 construct: Bought (R&D Systems); also called HA-tagged GCN4 human APRIL; HA-GCN4-huAPRIL; not shown: N-terminal HA tag; GCN4 isoleucine zipper oligomerization domain
T1 sequence: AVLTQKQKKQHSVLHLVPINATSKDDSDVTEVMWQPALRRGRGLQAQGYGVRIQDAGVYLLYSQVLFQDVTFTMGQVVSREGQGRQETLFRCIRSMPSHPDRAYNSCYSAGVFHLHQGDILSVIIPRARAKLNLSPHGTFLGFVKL
Description: FIGS. 19A-19B depict the antibody inhibition of APRIL binding to TNFSF receptors TACI (FIG. 19A) and BCMA (FIG. 19B). Assay is based on blocking ELISA using recombinant human APRIL (R&D Systems) and Human TACI-Fc. Inhibition was analyzed by non-linear regression using a four parameter fit.
Recombinant TACI-Fc or BCMA-Fc was coated on 96 well plates in 0.1 M carbonate-bicarbonate buffer (pH 9.6), overnight at 4° C. Plates were washed three times with 1×PBST (PBS+0.025% Tween 20) followed by blocking with 1% BSA in 1×PBS, 37° C. for 1 hour. All subsequent wash steps were carried out with 1×PBST. To assess antibody blocking, either 15 ng/mL or 50 ng/mL HA-GCN4-huAPRIL was preincubated with varying antibody concentrations ranging from 0.03-30 μg/mL in binding buffer comprised of 1% BSA and 0.025% Tween-20 in 1×PBS. Preincubation was carried out at 30° C. for 1 hour with mixing. Antibody-APRIL premix with 50 ng/mL APRIL or 15 ng/mL APRIL was then added to TACI-Fc coated or BCMA-Fc coated plates, respectively, and incubated for an additional hour at 30° C. HA-tagged APRIL binding to either receptor was quantified using a goat polyclonal anti-HA tag-HRP antibody (Abcam) added at a 1:10000 dilution followed by colorimetric development using 100 μl/well of freshly prepared TMB substrate (KPL) carried out for up to 30 minutes at room temperature before quenching enzymatic reaction by the addition of 1N sulfuric acid. ELISA signal was quantified by absorbance at 450 nm. ELISA data was analyzed by non-linear regression. IC₅₀ values were calculated based on a 4 parameter fit of antibody titration curves. […] Non-blocking antibodies Aprly-1 or Aprly-5 (Enzo Biosciences) were used as negative controls. Mouse specific, blocking antibody aprily-1-1 (Adipogen) was generally used as a positive control in experiments using mouse APRIL (HA-GCN4-mAPRIL).

[2] = target: T2, human RANKL (TNFSF11; Adipogen) (human, UniProt O14788 152-317, limits assumed); assay: indirect ELISA, cytokine coated
T2 sequence (looked up): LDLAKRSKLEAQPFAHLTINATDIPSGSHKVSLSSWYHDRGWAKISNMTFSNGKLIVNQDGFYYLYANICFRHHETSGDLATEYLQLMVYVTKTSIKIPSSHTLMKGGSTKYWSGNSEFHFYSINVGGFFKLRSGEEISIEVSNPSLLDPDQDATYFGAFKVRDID
Description: (§1) Selected anti-APRIL antibodies were evaluated for potential cross-reactivity with other members of the TNFa superfamily (TNFSF) family of cytokines, including: human TNFα (TNFSF2; Adipogen), human […] (TNFSF4, Adipogen), human FasL (TNFSF6, Adipogen), human TRAIL (TNFSF10, Adipogen), human RANKL (TNFSF11; Adipogen), human Tweak (TNFSF12; Abcam), human and mouse BAFF (TNFSF13B, AB Biosciences and Adipogen, respectively), and human LIGHT (TNFSF14, Adipogen). These cytokines share variable degree of sequence as well as higher order structural homologies. Among them, BAFF appears to be the most closely related to APRIL, with 29% identity and 53% amino acid sequence similarity.
(§2) Binding was evaluated by an indirect ELISA protocol using similar methods described for evaluation of APRIL binding; cytokines were immobilized to ELISA plate at 50 ng per well and then exposed to a solution of each of the test antibodies at a fixed concentration of 10 μg/ml Anti-human or anti-mouse Ig-HRP polyclonal antibody conjugates (Jackson Laboratories) were used for detection of antibody binding. The results presented in FIG. 36 indicated eleven of the twelve antibodies tested in this assay to specifically bind APRIL with no measurable cross-reactivity with the other TNFSF members substantially above assay background.

[3] = target: human TRAIL (TNFSF10, Adipogen) (human, UniProt P50591 95-281, limits assumed); assay: indirect ELISA, cytokine coated
Chain of human TRAIL (TNFSF10, Adipogen) (P50591 95-281 limits assumed): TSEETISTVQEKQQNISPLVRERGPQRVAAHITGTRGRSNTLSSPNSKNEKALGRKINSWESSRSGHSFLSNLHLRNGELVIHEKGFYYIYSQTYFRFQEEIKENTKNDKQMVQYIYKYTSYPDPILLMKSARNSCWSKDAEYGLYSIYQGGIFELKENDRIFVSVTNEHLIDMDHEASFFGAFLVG
Description: as §1, §2

[4] = target: T3, human FasL (TNFSF6, Adipogen) (human, UniProt P48023 103-281, limits assumed); assay: indirect ELISA, cytokine coated
T3 sequence (looked up): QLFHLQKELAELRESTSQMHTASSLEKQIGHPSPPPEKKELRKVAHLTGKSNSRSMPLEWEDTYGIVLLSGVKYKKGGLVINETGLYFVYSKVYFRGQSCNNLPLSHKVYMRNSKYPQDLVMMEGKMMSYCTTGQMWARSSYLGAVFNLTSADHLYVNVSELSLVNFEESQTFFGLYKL
Description: as §1, §2

[5] = target: human BAFF (TNFSF13B, AB Biosciences) (human, UniProt Q9Y275 134-285, limits assumed); assay: indirect ELISA, cytokine coated
Description: as §1, §2

[6] = target: mouse BAFF (TNFSF13B, Adipogen) (mouse, UniProt Q9WU72 127-309, limits assumed); assay: indirect ELISA, cytokine coated
Chain of mouse BAFF (TNFSF13B, Adipogen) (Q9WU72 127-309 limits assumed): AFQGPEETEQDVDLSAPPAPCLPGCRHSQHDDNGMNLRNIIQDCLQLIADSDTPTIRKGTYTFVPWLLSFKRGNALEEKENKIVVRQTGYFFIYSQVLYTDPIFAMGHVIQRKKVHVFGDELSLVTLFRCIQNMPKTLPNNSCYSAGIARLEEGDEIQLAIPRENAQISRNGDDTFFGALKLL
Description: as §1, §2

[7] = target: T4, human Tweak (TNFSF12; Abcam) (human, UniProt O43508 94-249, limits assumed); assay: indirect ELISA, cytokine coated
T4 sequence (looked up): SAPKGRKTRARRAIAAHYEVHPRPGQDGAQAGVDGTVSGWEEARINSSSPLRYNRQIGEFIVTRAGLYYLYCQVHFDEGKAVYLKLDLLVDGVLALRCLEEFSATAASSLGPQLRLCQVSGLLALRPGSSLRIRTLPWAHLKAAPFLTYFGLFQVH
Description: as §1, §2

[8] = target: human LIGHT (TNFSF14, Adipogen) (human, UniProt O43557 89-240, limits assumed); assay: indirect ELISA, cytokine coated
Chain of human LIGHT (TNFSF14, Adipogen) (O43557 89-240 limits assumed): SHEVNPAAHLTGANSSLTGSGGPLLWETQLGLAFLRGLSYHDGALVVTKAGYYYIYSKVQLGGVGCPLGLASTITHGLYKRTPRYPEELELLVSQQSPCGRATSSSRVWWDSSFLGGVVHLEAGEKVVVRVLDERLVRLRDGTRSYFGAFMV
Description: as §1, §2

[9] = target: human TNFα (TNFSF2; Adipogen) (human, UniProt P01375 85-233, limits assumed); assay: indirect ELISA, cytokine coated
Chain of human TNFα (TNFSF2; Adipogen) (P01375 85-233 limits assumed): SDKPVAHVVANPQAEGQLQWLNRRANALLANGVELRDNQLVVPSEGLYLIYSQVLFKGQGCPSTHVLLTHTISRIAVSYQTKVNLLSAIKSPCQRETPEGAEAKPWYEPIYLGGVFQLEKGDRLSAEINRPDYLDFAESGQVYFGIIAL
Description: as §1, §2

B1: monoclonal antibody 4540 (antibody, V domains shown)
VH: QVQLQQSGPELVKPGASVKISCKASGYTFADYYINWVKQRPGQGLEWIGWIFPGSGSTYYNEKFKGKATLTVDKSSSTAYMLLSSLTSEDSAVYFCARGDSGRAMDYWGQGTSVTVSS
VL: DIQMTQSPSSLSASLGGKVTITCKASQDINKYIAWYQHKPGKGPRLLIHYTSTLQSGIPSRFSGSGSGRDYSFSISNLEPEDNATYYCLQYDNLLTFGAGTKLELK
notes: mouse-derived
IC50 [1]: 0.66 nM
binding result [2]: no binding (tested: 10 µg/ml (p-1128))
binding result [3]: no binding (tested: 10 µg/ml (p-1128))
binding result [4]: no binding (tested: 10 µg/ml (p-1128))
binding result [5]: no binding (tested: 10 µg/ml (p-1128))
binding result [6]: no binding (tested: 10 µg/ml (p-1128))
binding result [7]: no binding (tested: 10 µg/ml (p-1128))
binding result [8]: no binding (tested: 10 µg/ml (p-1128))
binding result [9]: no binding (tested: 10 µg/ml (p-1128))

B2: monoclonal antibody 3833 (antibody, V domains shown)
VH: QVQLQQSGAELVRPGTSVKMSCKAAGYTFTNYWIGWVKQRPGHGLEWIGDIYPGGIGGGYTKYNEKFKGKATLTADTSSSTAYMQLGSLTSEDSAIYFCSRSETGRAMDYWGQGTSVTVSS
VL: B1 VL with Q55K, S56P, N77D, N83I, L95N, A99G, L105I
notes: mouse-derived
IC50 [1]: 2.7 nM
binding result [2]: no binding (tested: 10 µg/ml (p-1128))
binding result [3]: no binding (tested: 10 µg/ml (p-1128))
binding result [5]: no binding (tested: 10 µg/ml (p-1128))
binding result [6]: no binding (tested: 10 µg/ml (p-1128))
binding result [7]: no binding (tested: 10 µg/ml (p-1128))
binding result [8]: no binding (tested: 10 µg/ml (p-1128))
binding result [9]: no binding (tested: 10 µg/ml (p-1128))

B3: monoclonal antibody 3631 (antibody, V domains shown)
VH: EIQLQQSGPELVKPGASVKVSCKASGYSFTDYNIYWVKQSHGKSLEWIGYIDPSNGGPGYNQKFRGKATLTVDKSSSTAFLHLNSLTSEDSAVYYCARRDNYGSGTMDYWGQGTSVTVSS
VL: DIVMTQSQKFMSTSVGDRVSITCKASQNVGTDVSWYQQKPGKSPKPLIYWASNRFTGVPDRFIGSGSGTDFTLTISNVQSEDLADYFCEQYSIYPLTFGAGTKLELK
notes: mouse-derived
IC50 [1]: 0.48 nM
binding result [2]: no binding (tested: 10 µg/ml (p-1128))
binding result [3]: no binding (tested: 10 µg/ml (p-1128))
binding result [4]: no binding (tested: 10 µg/ml (p-1128))
binding result [7]: no binding (tested: 10 µg/ml (p-1128))
binding result [8]: no binding (tested: 10 µg/ml (p-1128))
binding result [9]: no binding (tested: 10 µg/ml (p-1128))

The next lines start with the values.

IC50 [1]: 0.22 nM
binding result [2]: no binding (tested: 10 µg/ml (p-1128))
binding result [3]: no binding (tested: 10 µg/ml (p-1128))
binding result [4]: no binding (tested: 10 µg/ml (p-1128))
binding result [5]: no binding (tested: 10 µg/ml (p-1128))
binding result [6]: no binding (tested: 10 µg/ml (p-1128))
binding result [7]: no binding (tested: 10 µg/ml (p-1128))
binding result [8]: no binding (tested: 10 µg/ml (p-1128))
binding result [9]: no binding (tested: 10 µg/ml (p-1128))
B4: monoclonal antibody 3732 (antibody, V domains shown)
VH: B3 VH with Y32D, I34M, S54L, P58T, R65K, G103A, S104T
VL: B3 VL with Q27K, I63T, S76N, I93S
notes: mouse-derived

IC50 [1]: 0.31 nM
binding result [2]: no binding (tested: 10 µg/ml (p-1128))
binding result [3]: no binding (tested: 10 µg/ml (p-1128))
binding result [4]: no binding (tested: 10 µg/ml (p-1128))
binding result [5]: no binding (tested: 10 µg/ml (p-1128))
binding result [6]: no binding (tested: 10 µg/ml (p-1128))
binding result [7]: no binding (tested: 10 µg/ml (p-1128))
binding result [8]: no binding (tested: 10 µg/ml (p-1128))
binding result [9]: no binding (tested: 10 µg/ml (p-1128))
B5: monoclonal antibody 2218 (antibody, mouse IgG2, V domains shown)
VH: DVQLQESGPGLVKPSQSLSLTCSVTGYSITSGYYWNWIRQFPGNKLEWMGYISYDGYNNYNPSLKNRISITRDTSKNQFFLKLNSVTTEDTATYYCANYYDYEDWYFGVWGTGTTVTVSS
VL: DIVLTQSPASLAMSLGKRATISCRASESVSIIGTNSIHWYQQKPGQPPKLLIYHASNLETGVPARFSGSGSRTDFTLTIDPVEEDDVAIYYCLQSRKIPYTFGGGTKLEIK

IC50 [1]: 0.48 nM
binding result [2]: no binding (tested: 10 µg/ml (p-1128))
binding result [3]: no binding (tested: 10 µg/ml (p-1128))
binding result [4]: no binding (tested: 10 µg/ml (p-1128))
binding result [5]: no binding (tested: 10 µg/ml (p-1128))
binding result [6]: no binding (tested: 10 µg/ml (p-1128))
binding result [7]: no binding (tested: 10 µg/ml (p-1128))
binding result [8]: no binding (tested: 10 µg/ml (p-1128))
binding result [9]: no binding (tested: 10 µg/ml (p-1128))
B6: monoclonal antibody 3530 (antibody, mouse IgG2, V domains shown)
VH: QVQLQQSGAELVRPGASVKLSCKASGYTFTDHEMHWVRQTPVHGLEWIGVIDPDTGDTTYNQKFKGKATLTADKSSSTAYMDLRSLTSEDSAVFYCTRWTGGDYWGHGTTLTVSS
VL: DAVMTQTPLSLSVTIGQPASISCKSSQSLLYSDGKTYLNWFQQRPGQSPKRLMYQVSKLDPGIPDRFSGSGSETDFTLKISRVEAEDLGVYYCLQGTYYPYTFGSGTKLEIK
